Results reported in the supplement of paper PMC9732359.
± gives the uncertainty stated by the source.

Test: protein stability index of a GFP-peptide fusion (yeast GPS) (PSI 1-4); higher = more stable; sorted into four equal gates, so the index is relative within each strain
Outline: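 Tiled 17-residue peptides from yeast proteins were fused downstream of GFP on a plasmid that also expresses Cherry, and the pooled library was carried in yeast. Mid-log cultures grown in leucine-free medium were sorted into four equal gates by GFP/Cherry fluorescence ratio. Plasmids from each gate were PCR-amplified and Illumina-sequenced, and reads were assigned to strains by barcodes. Each peptide's protein stability index is the sum, over gates, of the gate's read frequency multiplied by its gate number.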

Sequence | protein stability index (doa10∆) | protein stability index (pdr5∆) | protein stability index (san1∆) | protein stability index (ubr1∆)
HSNESSNETIGEIQLLF [IRR1] | 2.68 ± 0.11 | 2.83 ± 0.14 | 3.27 ± 0.082 | 2.92 ± 0.084
IGIAGAHRVRDLMDEEL [SKI6] | 3.38 ± 0.13 | 3.36 ± 0.11 | 2.94 ± 0.088 | 3.07 ± 0.13
QLVLRGLLSQAIGCIER [YJR042W/NUP85] | 1.98 ± 0.11 | 2.15 ± 0.073 | 1.71 ± 0.099 | 2.3 ± 0.076
TILSSKLSNIWMQRQLI [SRB2] | 2.33 ± 0.11 | 1.96 ± 0.1 | 2.76 ± 0.1 | 2.82 ± 0.051
KPQEIKDILVKTGITKK [PRE9] | 3.39 ± 0.089 | 3.29 ± 0.086 | 2.56 ± 0.22 | 3.15 ± 0.14
TSQKMKKMVYVLDSMTK [SRP54] | 2.79 ± 0.11 | 3.12 ± 0.11 | 3.13 ± 0.21 | 2.96 ± 0.078
LNVVLDDAMEINGEDPA [SMX2] | 3.35 ± 0.067 | 3.31 ± 0.07 | 3.46 ± 0.039 | 3.2 ± 0.067
TAVGKAAVVKTSSRQTV [RPT5] | 3.39 ± 0.065 | 3.23 ± 0.07 | 3.28 ± 0.074 | 3.15 ± 0.052
SESKDSDKPSLPSAVDG [YLR335W/NUP2] | 3.41 ± 0.1 | 3.38 ± 0.1 | 3.28 ± 0.11 | 2.95 ± 0.15
IEANVTVKTSDDYVLRI [RPS1A] | 2.98 ± 0.035 | 2.9 ± 0.038 | 2.96 ± 0.036 | 2.726 ± 0.027
QTGTRRNSKLLNTKSIQ [MCD1] | 3.29 ± 0.2 | 3.19 ± 0.18 | 3.05 ± 0.085 | 3.2 ± 0.072
WKFKSLIEILRLRALQL [RRI2] | 1.45 ± 0.093 | 1.21 ± 0.075 | 1.14 ± 0.13 | 1.08 ± 0.075
FLRPTYPDLCSIYDKWT [RPN1] | 2.83 ± 0.064 | 2.82 ± 0.059 | 2.35 ± 0.069 | 2.47 ± 0.046
LINIDTSIANAFRRIMI [RPC40] | 2.28 ± 0.043 | 2.83 ± 0.054 | 3.14 ± 0.046 | 2.89 ± 0.049
MLGHYLGEFSITYTPVR [RPS15] | 2.27 ± 0.19 | 2.83 ± 0.073 | 2.04 ± 0.16 | 2.86 ± 0.18
EGDFLKSIIGKLTAERA [POP1] | 1.63 ± 0.14 | 3.23 ± 0.082 | 2.1 ± 0.11 | 3.03 ± 0.12
LNYGNICEPKETLSIFT [YJL039C/NUP192] | 2.02 ± 0.061 | 1.75 ± 0.056 | 2.02 ± 0.12 | 1.73 ± 0.054
KLKQGQKLFVQVSNFAP [GAL11] | 2.74 ± 0.063 | 2.81 ± 0.057 | 3.01 ± 0.051 | 2.84 ± 0.05
LNLDSEQTVEYMVSRAI [RPN3] | 3.32 ± 0.23 | 3.22 ± 0.3 | 2.93 ± 0.25 | 2.83 ± 0.11
EVTEGQAEATEWAEENA [RPS0B] | 2.44 ± 0.27 | 3.22 ± 0.22 | 2.44 ± 0.17 | 2.44 ± 0.14
LTQLLSMMSDGIEHFDI [RPO31] | 2.93 ± 0.073 | 3.05 ± 0.085 | 3.1 ± 0.052 | 2.72 ± 0.089
QAVETVGQAGRPKKITG [RPN1] | 1.99 ± 0.06 | 2.74 ± 0.095 | 2.31 ± 0.12 | 2.45 ± 0.056
KLRRECSNPTCGAGVFL [RPS31] | 1.78 ± 0.048 | 2.44 ± 0.065 | 2.11 ± 0.07 | 1.86 ± 0.038
DADTEDPHSASLINSHL [RPC82] | 2.9 ± 0.084 | 3.27 ± 0.085 | 2.97 ± 0.078 | 3 ± 0.13
YGQRAVLKFAAHTGATP [RPS0B] | 2.27 ± 0.055 | 2.88 ± 0.039 | 2.66 ± 0.046 | 2.66 ± 0.041
ELKKYMDKKILLNINGS [SMX2] | 1.88 ± 0.059 | 2.25 ± 0.062 | 2 ± 0.094 | 2 ± 0.045

Sequence | protein stability index (doa10∆) | protein stability index (pdr5∆) | protein stability index (san1∆) | protein stability index (ubr1∆)
KMIEKIEKMSTIVQLCK [YIL149C/MLP2] | 2.65 ± 0.092 | 2.37 ± 0.067 | 1.98 ± 0.17 | 2.36 ± 0.098
QTDAIKSDEAKWKPVLS [RPN5] | 2.62 ± 0.14 | 2.99 ± 0.19 | 3.27 ± 0.075 | 3.2 ± 0.16
EEKEESNLAATKSMVKI [RPN11] | 3.43 ± 0.12 | 3.41 ± 0.11 | 3.34 ± 0.059 | 3.35 ± 0.098
TKKKRKPTEVNDSENNS [ITC1] | 3.26 ± 0.063 | 3.21 ± 0.081 | 3.16 ± 0.045 | 3.27 ± 0.054
YEDEELSRAEYDSDSDS [LIN1] | 3.19 ± 0.1 | 3.33 ± 0.087 | 3.08 ± 0.057 | 3.23 ± 0.055
LQQICRVRNKDIRKFLD [RPL9A] | 2.13 ± 0.074 | 2.2 ± 0.074 | 2.04 ± 0.1 | 2.31 ± 0.054
DETTVPSYYYYVDPETT [ROX3] | 2.99 ± 0.08 | 3.04 ± 0.072 | 3.01 ± 0.049 | 3.25 ± 0.065
TTNNNNTNNNNTNNNNN [SWI1] | 3.39 ± 0.087 | 3.5 ± 0.082 | 3.43 ± 0.06 | 3.42 ± 0.079
PNNETSVLSSKPGSKPE [SIR3] | 3.12 ± 0.11 | 3.04 ± 0.12 | 3.06 ± 0.082 | 2.96 ± 0.064
GAKFENIVHNFKERQMM [AAR2] | 3.32 ± 0.081 | 2.71 ± 0.096 | 2.76 ± 0.089 | 3.04 ± 0.11
NAKESNYTDLIWFPEDF [MED1] | 3.06 ± 0.094 | 3.47 ± 0.17 | 3.17 ± 0.12 | 2.28 ± 0.052
INNLPPEKEASSATIVL [YCG1] | 2.55 ± 0.16 | 2.88 ± 0.14 | 2.29 ± 0.19 | 2.52 ± 0.073
LFVISTEISPMAGSQFE [RRP45] | 1.89 ± 0.08 | 2.21 ± 0.06 | 2.8 ± 0.077 | 1.2 ± 0.11
EPIEESSQNNSELAPIE [IRR1] | 2.89 ± 0.2 | 2.9 ± 0.13 | 2.73 ± 0.26 | 2.73 ± 0.095
IHSLIPVAKWFVKFITY [SIN4] | 2.7 ± 0.048 | 2.52 ± 0.04 | 2.77 ± 0.044 | 2.79 ± 0.04
DSLNDDLNKENKLLRRK [YIL149C/MLP2] | 2.98 ± 0.21 | 3.24 ± 0.18 | 3.01 ± 0.15 | 3.31 ± 0.065
AKQALDLYHFALNYENE [SNF2] | 2.47 ± 0.098 | 2.83 ± 0.084 | 2.69 ± 0.095 | 1.83 ± 0.1
PPEEFSNTIDELSTDII [SRB7] | 3.1 ± 0.057 | 3.16 ± 0.068 | 3.26 ± 0.069 | 3.05 ± 0.06
MDQDNNNHNDSNRLHPP [GRR1] | 2.73 ± 0.062 | 2.79 ± 0.062 | 2.69 ± 0.064 | 2.9 ± 0.04
RAKSSSHLFNEYSYVDS [RPN4] | 2.62 ± 0.16 | 3.23 ± 0.24 | 3.25 ± 0.19 | 2.63 ± 0.12
DSEGSIKQTSDESTIKR [ECM29] | 3.43 ± 0.11 | 3.56 ± 0.085 | 3.43 ± 0.068 | 3.41 ± 0.063
ITQMRVNDEEEHKQLVA [RPC82] | 3.29 ± 0.13 | 2.92 ± 0.099 | 2.82 ± 0.13 | 3.34 ± 0.16
NENETRDKVCKQINEAR [PGD1] | 3.14 ± 0.14 | 3.58 ± 0.19 | 3.28 ± 0.079 | 3.09 ± 0.1
DYYYEDAGSNQYYVTQH [SWI1] | 3.15 ± 0.1 | 3.34 ± 0.082 | 3.09 ± 0.14 | 3.22 ± 0.095
RNMAEEFEYDDEPDEQG [CYT1] | 3.12 ± 0.073 | 3.17 ± 0.061 | 3.17 ± 0.064 | 3.09 ± 0.059
CGHRILLKARTKRLVQF [RPC10] | 1.43 ± 0.11 | 1.99 ± 0.13 | 1.68 ± 0.18 | 1.22 ± 0.052
